# B1: TPR t1 (parent)
# chain: GACCAAUCUGCCCUCAGAGCUCGAGAACAUCUUCGGAUGCAGAGGAGGCAGGCUUCGGUGGCGCGAUAGCGCCAACGUCCUCAACCUCCAAUGCAUCCCACCACAUGAUGAUGCCUGAAGAGCCUUGGUUUUUUG
# Variants of: B1
# Test: polymerase ribozyme fitness, log enrichment relative to wild type (log ratio); higher = more active; in vitro selection for triplet polymerase activity
# Method in brief: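 PCR was used to build mutant libraries for each subunit of a heterodimeric triplet polymerase ribozyme, which were then transcribed. A single in vitro selection round, in triplicate, used a frozen incubation at −7 °C and recovered extended constructs by gel excision, streptavidin beads and RT-PCR. Fitness is the logarithm of genotype enrichment relative to wild-type enrichment, averaged over replicates with inverse-variance weights. The logarithm is base 2, and after Illumina sequencing only genotypes with ≥10 input reads and ≥1 read per output were kept.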
row,Variant,polymerase ribozyme fitness (log ratio)
1,GACCAAUCUGCCCUCUGAGCUCGAGAACAUCUUCGGAUGCAGAGGAGGCAGGCUUCGGUGGCGCGAUAGCGCCAGCGUCCUCUACCUCCAAUGCAUCCCUCCACAUGAUAAUGCCUGAAGAGCCUUGGUUUUUUG [A16U A75G A83U A100U G110A],-4.47
2,GACCAAUCUGCCCUCUGAGCUCGAGAACAUCUUCGGUUGCAGAGGAGGCAGGCUUCGGUGGCGCGAUAGCGCCAACGUCCUCAACCUCCAAUGCAUUCCACCACAUGAUGAUGCCUGAAGAGCCUUGGUUUUUUG [A16U A37U C97U],-5.8
3,GACCAAUCUGCCCUCGGAGCUCGAGAACAUCUUCGGAUGCAGAGGAGGCAGGCUUCGGUGGCGCGAUAGCGCCAACAUCCUCAACCUCCAAUGCAUCCCACCACAUGAUGGUACCUGGAGAGCCUUGGUUUUUUG [A16G G77A A111G G113A A118G],-3.63
4,GACCAAUCUGCCCUCUGCGCUCGAGAACAUCUUCGGAUGCAGAGGAGGCAGACUUCGGUGGCGCGAUAGCGCCAACGUCCUCAACCUCCAAUGCACCCCACCACAUGAUGAAGCCUGAAGAGCCUUGGUUUUUUG [A16U A18C G52A U96C U112A],-4.51
5,GACCAAUCUGCCCUCGGAGCUCGAGAACAUCUUCGGAUGCAGAGGAGGCAGGCUUCGGUGACGCGAUAGCGCCAACGUCCUCAACCUCCAAUGCAUCCCACCACAUGAUGAUGCCUGAAGAGCCUUGGUUUUUUG [A16G G61A],-1.13
6,GACCAAUCUGCCCUCUGAGCUCGAGUACAUCUUCGGAUGCAGAGGAGGCAGGCUUCGGUGGCGCGAUAGCGCCAACGUCCUCAACCUCCAAUGCAUCCCACCACAUGAUGAUGCCUGAAGAGCCUUGGUUUUUUG [A16U A26U],-4.8
7,GACCAAUCUGCCCUCUGAGCUCGAGAACUUCUUCGAAUGCAGCUGAGGCAGGAUUCGGUGGCCCGAUAGCGCCAACGUCCUCAACCUCCAAUGCAUCCCACCACAUGAUGACGCCUGAAGAGCCUUGGUUUUUUG [A16U A29U G36A A43C G44U C53A G63C U112C],-5.08
8,GACCAAUCUGCCCUCGGAGCUCGAGAACAUCUUCGGAUGCAGAGGAGGCAGGCUUCGGUGGCUCGAUAGCGCCAACGUCCUCAACCUCCAAUGCAUCCCACCACAUGAUGAUGCCUGAAGAGCCUUGGUUUUUUG [A16G G63U],-1.65
9,GACCAAUCUGCCCUCGGAGCUCGAGAACAUCUUCGGAUACAGAGGAGGCAGGCUUCGGUGGCGCGAUAGCGCCAACGUCCUCAACCUCCAAUGCAUCCCACCACAUGAUGAUGUCUGAAGAGCCUUGGUUUUUUG [A16G G39A C114U],-4.17
10,GACCAAUCUGCCCUCUGAGCUCGAGAACAUCUUCGGAUGCAGAGGCGGCAGGCUUCGGUGGCGCGAUAGCGCCAACGUCCUCAACCUCCAAUGUAUCCCACCACAUGAUGAUGCCUGAACAGCCUUGGUUUUUUG [A16U A46C C94U G120C],-0.971
11,GACCAAUCUGCCCUCGGAGCUCGAGAACAUCUUCGGAUGCAGAGGAGGCACGCUUCGGUGGCGCGAUAGCGCCAACGUCCUCAACCUCCAAUGCAUCCCACCACAUGAUGAUGCCUGAAGAGCCUUGGUUUUUUG [A16G G51C],-5.21
12,GACCAAUCUGCCCUCUGAGCUCGAGGACAUCUUCGGAUGCAGAGGAGGCAGGCUUUGGUGGCGCGAUAGCGCCAACGUCCUCAACCUUCAAUGCAUCCCACCACAUGAUGAUGCCUGAAGAGCGUUGGUUUUUUG [A16U A26G C56U C88U C124G],-1.25
13,GACCAAUCUGCCCUCGGAGCUCGAGAACAUCUUCGGAUGCAGAGGAGCCAGGCUUCGGUAGCGCGAUAGCGCCAACGUCCUCAACCUCCAAUGCAUCCCACCACAUGAUGAUGCCUGAAGAGCCUUGGUUUUUUG [A16G G48C G60A],-1.87
14,GACCAAUCUGCCCUCGGAGCUCGAGAACAUCUUCGGAUGCAGAGGAGGCAGGCUUCGGUGGCGCGAUAGCGGCAACGUCCUCAACCUCCAAUGCAUCCCACCACAUGAUGAUGCCUGAAGAGCCUUGGGUUUUUG [A16G C72G U129G],-2.89
15,GACCAAUCUGCCCUCGGAGCUCGAGAACAUCUUCGUAUGCAGAGGAGGCAGGCUUCGGUGGCGCGAUACCGCCAACGUCCUCAACCUCCAAUGCAUCCCACCACAUGAUGAUGCCUGAAGUGCCUUGGUUUUUUG [A16G G36U G69C A121U],-1.25
16,GACCAAUCUGCCCUCGGAGCUCGAGAACAUCUUCGGAUGCAGAGGAGGCAGGCUUCGGUGACGCGAUAGCGCCCACGGCCUCAACCUCCAAUGCAUCCCACCACAUGAUGAAGCCUGAAGAGCCUUGGUUUUUUG [A16G G61A A74C U78G U112A],-4.17
17,GACCAAUCUGCCCUCUGAGCUCGAGAACAUCUUCGGCUGCAGAGGAGGCAGGCUUCGGUGGCGCGAUAGCGCGAACGUCCUCAACCUCCAAUGCAUCCCACCACAUGAUGACGCCUGAAGAGCCUUGGUUUUGUG [A16U A37C C73G U112C U133G],-1.75
18,GACCAAUCUGCCCUCGGAGCUCGAGAACAUCUUCGGAUGCACCGGAGGCAGGCUUCGGUGGCGCGAUAGCGCCAACGUCCUCAACCUCCAAUGCAUCCCACCACAUGAUGAUGCCUGAAGAGACUUGGUUUUUUG [A16G G42C A43C C123A],-3.43
19,GACCAAUCUGCCCUCGGAGCUCGAGAACAUCUUCGGAUGCAGAGAAGGCAGGCUUCGGUGGCGCGAUAGCGCCAACGUCGUCAACCUCCAAUGCAUCCCACCACAUGAUGAUGUCUGAAGAGCCUUGGUUUUUUG [A16G G45A C80G C114U],-5.91
20,GACCAAUCUGCCCUCGGAGCUCGAGAACAUCUUCGGAUGCAGAGGAGGCAGGCUUCGGUAGCGCGAUAGCGCCAACGUCCUCAACCUCCAAUGCAUCCCACCACAUGAUGAUGCCUGAAGAGCCUUGGUUUUUUG [A16G G60A],-1.26
21,GACCAAUCUGCCCUCGGAGCUCGAGAACAUCUUCGGAUGCAGAGGAGGCAGGCUUCGGUGGCGCGAUAGCUCCAACGUCCUCAACCUCCAAUGCAUCCCACCACAUGAUGAUGCCUGAAGAGCCUUGGUUUUUUG [A16G G71U],-0.398
